Data on 13 molecules can be found in patent US11370837 (dated 2022).

Assay [1] concerns the target T1, human TIGIT-his (human, UniProt Q495A1).
T1 chain: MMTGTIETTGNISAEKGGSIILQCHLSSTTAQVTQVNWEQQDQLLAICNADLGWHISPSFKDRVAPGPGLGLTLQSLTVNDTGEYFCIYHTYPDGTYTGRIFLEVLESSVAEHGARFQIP
The assay can be described thus: BLI.

The target of assay [2] is monkey TIGIT-his (monkey). The assay can be described thus: BLI. A general note: In BLI a coated tip is dipped into the sample, and binding shifts an interference pattern.
monkey TIGIT-his (monkey), sequence (Q495A1 other isoform, or with tags, fused parts or gaps): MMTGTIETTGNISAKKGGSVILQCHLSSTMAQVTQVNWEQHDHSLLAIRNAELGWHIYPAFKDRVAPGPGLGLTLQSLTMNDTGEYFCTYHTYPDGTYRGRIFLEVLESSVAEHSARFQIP
The target in assay [3] is T2, mouse TIGIT-his (mouse, UniProt P86176).
T2 chain: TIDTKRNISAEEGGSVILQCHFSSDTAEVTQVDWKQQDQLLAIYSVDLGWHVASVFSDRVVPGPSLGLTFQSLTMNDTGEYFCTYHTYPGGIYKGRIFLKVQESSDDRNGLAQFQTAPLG
As to the kind of experiment: BLI.

In assay [4] the target is T3, human TIGIT on CHO cells (human, UniProt Q495A1).
T3 chain: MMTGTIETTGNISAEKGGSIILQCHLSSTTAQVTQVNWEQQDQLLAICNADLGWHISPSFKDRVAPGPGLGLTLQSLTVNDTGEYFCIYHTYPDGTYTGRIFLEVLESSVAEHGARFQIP
As to the kind of experiment: competition, CD155 blocking FACS.

For assay [5], the target named is T3, human TIGIT on CHO cells. As to the kind of experiment: FACS.
Assay [6] addresses T3, human TIGIT on CHO cells. The assay can be described thus: competition, CD155 blocking FACS.
In assay [7] the target is T3, human TIGIT on CHO cells. The assay can be described thus: FACS, CHO-expressed antibody. A general note: Flow cytometry measures light scatter and fluorescence of single cells or particles in a stream.
Assay [8] deals with T2, mouse TIGIT-his. As to the kind of experiment: BLI.

Broadly, the Kd is the free concentration of one partner at which half of the binding sites on the other are occupied at equilibrium, for simple one-to-one binding. As usually defined, the IC50 is the concentration that gives 50% inhibition. The term EC50 denotes the concentration needed to bring the measured effect to its halfway point.

Like-named read-outs stand apart in the source and are kept apart here.

B1: ADI-30306 (antibody, V domains shown)
VH: QLQLQESGPGLVKPSETLSLTCTVSGGSISSSLYYWGWIRQPPGKGLEWIGSIYYSGSTFYNPSFKSRVTISVDTSKNQFSLKLSSVTAADTAVYYCAREAGRGTTGLLFDYWGQGTLVTVSS
VL: DIQMTQSPSTLSASVGDRVTITCRASQSISSWLAWYQQKPGKAPKLLIYKASSLESGVPSRFSGSGSGTEFTLTISSLQPDDFATYYCQQYGILPRTFGGGTKVEIK
As to B1, the figures for the Kd in assay [1] and in assay [2] were 2.7 nM and 3.44 nM, respectively. Further, the binding result in assay [3] is “no binding”.

B2: ADI-27301 (antibody, V domains shown)
VH: QLQLQESGPGLVKPSETLSLTCTVSGGSISSSSYYWGWIRQPPGKGLEWIGSIYYSGSTYYNPSLKSRVTISVDTSKNQFSLKLSSVTAADTAVYYCAREAGRGTTGLLFDYWGQGTLVTVSS
VL: DIQMTQSPSTLSASVGDRVTITCRASQSISSWLAWYQQKPGKAPKLLIYKASSLESGVPSRFSGSGSGTEFTLTISSLQPDDFATYYCQQYGILPRTFGGGTKVEIK
On to B2, for which the half-maximal inhibitory concentration (IC50) in assay [4] is 0.641 nM. A half-maximal effect in assay [5] (EC50) was put at 0.899 nM.

B3: ADI-30311 (antibody, V domains shown)
VH: QLQLQESGPGLVKPSETLSLTCTVSGGSIASSVYYWGWIRQPPGKGLEWIGSIYYSGSTWYNPSLKSRVTISVDTSKNQFSLKLSSVTAADTAVYYCAREAGRTGTGLLFDYWGQGTLVTVSS
VL: DIQMTQSPSTLSASVGDRVTITCRASQSISSWLAWYQQKPGKAPKLLIYKASSLESGVPSRFSGSGSGTEFTLTISSLQPDDFATYYCQQYGILPRTFGGGTKVEIK
B3 displayed an IC50 in assay [4] of 0.531 nM. The molecule also yielded an EC50 in assay [5] of 0.757 nM.

B4: ADI-30278 (antibody, V domains shown)
VH: QVQLVQSGAEVKKPGASVKVSCKASGYTFTEYYMHWVRQAPGQGLEWMGIISPSAGSTKYAQKFQGRVTMTRDTSTSTVYMELSSLRSEDTAVYYCARDHDIRLAGRLADYWGQGTLVTVSS
VL: DIQMTQSPSSVSASVGDRVTITCRASQGISSWLAWYQQKPGKAPKLLISAASSLQSGVPSRFSGSGSGTDFTLTISSLQPEDFATYYCQQAVILPITFGGGTKVEIK
B4: the figures for the Kd in assay [1] and in assay [2] were 1.75 nM and 4.53 nM, respectively. For the same molecule, the values for the IC50 in assay [4] and in assay [6] were 0.217 nM and 0.116 nM, respectively. Further, the EC50 in assay [5] came to 0.409 nM; in assay [7], 0.132 nM. For the same molecule, the binding result in assay [3] was “no binding”.

B5: ADI-27297 (antibody, V domains shown)
VH: QVQLVQSGAEVKKPGASVKVSCKASGYTFTSYYMHWVRQAPGQGLEWMGIINPSGGSTSYAQKFQGRVTMTRDTSTSTVYMELSSLRSEDTAVYYCARDHDIAAAGRLADYWGQGTLVTVSS
VL: DIQMTQSPSSVSASVGDRVTITCRASQGISSWLAWYQQKPGKAPKLLISAASSLQSGVPSRFSGSGSGTDFTLTISSLQPEDFATYYCQQAVILPITFGGGTKVEIK
Molecule B5 showed an IC50 in assay [4] of 0.603 nM. In assay [5], this molecule displayed an EC50 of 0.496 nM.

B6: ADI-30268 (antibody, V domains shown)
VH: QVQLVQSGAEVKKPGASVKVSCKASGYTFGSYYMGWVRQAPGQGLEWMGIIDPSGGRTSYARKFQGRVTMTRDTSTSTVYMELSSLRSEDTAVYYCARARTPSSWPYGMDVWGQGTTVTVSS
VL: DIQMTQSPSSLSASVGDRVTITCRASQSINSYLNWYQQKPGKAPKLLIYAASSLQSGVPSRFSGSGSGTDFTLTISSLQPEDFATYYCQQSLLTPFTFGGGTKVEIK
With B6, the figures for the Kd in assay [1], in assay [8] and in assay [2] were 3.29 nM, 46.4 nM and 62.3 nM, respectively. The IC50 in assay [4] was 0.221 nM; in assay [6] it was 0.14 nM. Moreover, the EC50 in assay [5] worked out at 0.329 nM; in assay [7], 0.139 nM.

B7: ADI-27238 (antibody, V domains shown)
VH: QVQLVQSGAEVKKPGASVKVSCKASGYTFTSYYMSWVRQAPGQGLEWMGIINPSGGSTSYAQKFQGRVTMTRDTSTSTVYMELSSLRSEDTAVYYCARARYPSSWPYGMDVWGQGTTVTVSS
VL: DIQMTQSPSSLSASVGDRVTITCRASQSINSYLNWYQQKPGKAPKLLIYAASSLQSGVPSRFSGSGSGTDFTLTISSLQPEDFATYYCQQSLLTPFTFGGGTKVEIK
For B7, the IC50 in assay [4] came out at 0.418 nM. This molecule also gave an EC50 in assay [5] of 0.751 nM.

B8: ADI-30267 (antibody, V domains shown)
VH: QVQLVQSGAEVKKPGASVKVSCKASGYTFRSYYMSWVRQAPGQGLEWMGIIDPSGGRTSFAQKFQGRVTMTRDTSTSTVYMELSSLRSEDTAVYYCARARYPESWPYGMDVWGQGTTVTVSS
VL: DIQMTQSPSSLSASVGDRVTITCRASQSINSYLNWYQQKPGKAPKLLIYAASSLQSGVPSRFSGSGSGTDFTLTISSLQPEDFATYYCQQSLLTPFTFGGGTKVEIK
Take B8: the IC50 in assay [4] came to 0.278 nM. This molecule yielded an EC50 in assay [5] of 0.74 nM.

B9: ADI-30293 (antibody, V domains shown)
VH: EVQLVESGGGLVQPGGSLRLSCAASGFTFSSYSMNWVRQAPGKGLEWVSYISSSGTINYADSVKGRFTISRDNAKNSLYLQMNSLRAEDTAVYYCARHRIADSPSRAFDIWGQGTMVTVSS
VL: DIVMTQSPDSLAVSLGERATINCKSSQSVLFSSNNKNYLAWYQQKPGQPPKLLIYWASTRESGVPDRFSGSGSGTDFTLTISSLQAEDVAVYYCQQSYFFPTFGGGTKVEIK
For the molecule B9, the Kd in assay [1] worked out at 0.789 nM; in assay [8] it was 13 nM; in assay [2], 34.9 nM. Besides, the IC50 in assay [4] turned out to be 0.859 nM; in assay [6], 0.251 nM. Further, the EC50 in assay [5] is 0.9 nM; in assay [7], 0.229 nM.

B10: ADI-30296 (antibody, V domains shown)
VH: EVQLVESGGGLVQPGGSLRLSCAASGFTIGGYSMNWVRQAPGKGLEWVSYISSSSTIHYADSVKGRFTISRDNAKNSLYLQMNSLRAEDTAVYYCARHRIGRSPSRAFDIWGQGTMVTVSS
VL: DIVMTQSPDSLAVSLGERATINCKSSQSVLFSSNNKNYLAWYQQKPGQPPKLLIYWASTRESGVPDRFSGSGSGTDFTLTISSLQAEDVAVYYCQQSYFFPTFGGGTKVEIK
B10 gave an IC50 in assay [4] of 0.278 nM. Besides, in assay [5], the EC50 was 0.371 nM.

B11: ADI-30286 (antibody, V domains shown)
VH: EVQLLESGGGLVQPGGSLRLSCAASGFTFGPYGMSWVRQAPGKGLEWVSAISGSGASTWYADSVKGRFTISRDNSKNTLYLQMNSLRAEDTAVYYCAKDPGTHYSGYYYIWRYWGQGTLVTVSS
VL: EIVMTQSPATLSVSPGERATLSCRASQSVSSNLAWYQQKPGQAPRLLIYSASTRATGIPARFSGSGSGTEFTLTISSLQSEDFAVYYCQQYVPHPPFTFGGGTKVEIK
Consider B11, for which the Kd in assay [1] was found to be 1.76 nM; in assay [8] it was 134 nM; in assay [2], 10.6 nM. For the same molecule, the IC50 in assay [4] amounted to 0.296 nM; in assay [6], 0.189 nM. For the same molecule, the EC50 in assay [5] amounted to 0.446 nM; in assay [7] it was 0.176 nM.

B12: ADI-30288 (antibody, V domains shown)
VH: EVQLLESGGGLVQPGGSLRLSCAASGFTFGPYGMSWVRQAPGKGLEWVSAISGSGASTWHADSVKGRFTISRDNSKNTLYLQMNSLRAEDTAVYYCAKDPGTDSTGYYYIWRYWGQGTLVTVSS
VL: EIVMTQSPATLSVSPGERATLSCRASQSVSSNLAWYQQKPGQAPRLLIYSASTRATGIPARFSGSGSGTEFTLTISSLQSEDFAVYYCQQYVPHPPFTFGGGTKVEIK
Turning to B12, the Kd in assay [1] stood at 1.31 nM; in assay [8] it was 5.7 nM; in assay [2], 7.19 nM. For the same molecule, the IC50 in assay [4] amounted to 0.668 nM; in assay [6], 0.224 nM. Also, the EC50 in assay [5] was 0.475 nM; in assay [7], 0.186 nM.

B13: ADI-27291 (antibody, V domains shown)
VH: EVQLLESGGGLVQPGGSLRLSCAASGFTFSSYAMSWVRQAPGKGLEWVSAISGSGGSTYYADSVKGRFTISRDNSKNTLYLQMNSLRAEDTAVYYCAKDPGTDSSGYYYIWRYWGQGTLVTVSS
VL: EIVMTQSPATLSVSPGERATLSCRASQSVSSNLAWYQQKPGQAPRLLIYSASTRATGIPARFSGSGSGTEFTLTISSLQSEDFAVYYCQQYVPHPPFTFGGGTKVEIK
B13 registered an IC50 in assay [4] of 1.61 nM. In addition, in assay [5], the EC50 is 0.852 nM.
